Assay results from patent US20210253725A1 (BIONTECH, published 2021).

T1: CD134 expressed on the cell surface of HT1080_OX40 cells (human, UniProt P43489 29-277)
T1 sequence (looked up): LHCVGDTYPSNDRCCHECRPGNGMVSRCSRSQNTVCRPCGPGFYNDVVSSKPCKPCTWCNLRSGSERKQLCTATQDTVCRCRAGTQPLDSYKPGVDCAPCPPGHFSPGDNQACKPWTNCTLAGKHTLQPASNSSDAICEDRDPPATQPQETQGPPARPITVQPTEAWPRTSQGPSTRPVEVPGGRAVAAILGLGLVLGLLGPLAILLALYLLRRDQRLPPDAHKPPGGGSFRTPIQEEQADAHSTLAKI

T2: CD134 protein (His-tagged, Sino Biological Inc. 10481-H08H) (human, UniProt P43489 29-216)
T2 construct: bought protein coated on ELISA plates; also called OX40; TNFRSF4; not shown: His tag
T2 sequence (looked up): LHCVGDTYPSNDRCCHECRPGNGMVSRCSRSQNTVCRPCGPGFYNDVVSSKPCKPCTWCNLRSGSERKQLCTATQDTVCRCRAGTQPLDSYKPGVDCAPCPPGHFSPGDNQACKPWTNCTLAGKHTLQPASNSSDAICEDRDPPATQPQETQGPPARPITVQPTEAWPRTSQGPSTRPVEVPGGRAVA


How the values were obtained:
[1] = biological target: T1, CD134 expressed on the cell surface of …; test: cell-based or functional assay
[2] = biological target: T1, CD134 expressed on the cell surface of …; test: cell-based or functional assay; remark: listed apart in the source
[3] = biological target: T1, CD134 expressed on the cell surface of …; test: HT1080_OX40 cells, imaging; note: test concentration or dose not given here
[4] = biological target: T2, CD134 protein (His-tagged, Sino …); test: ELISA, coated His-tagged CD134; note: test concentration or dose not given here
Throughout, for Functional assay Cross-linked by F(ab′)2 fragment IL-8: test concentration or dose not given here.
Throughout, for Functional assay IL-8: test concentration or dose not given here.

Row | Functional assay Cross-linked by F(ab′)2 fragment IL-8 [1] | Functional assay IL-8 [1] | EC 50 (IL-8 release, cross-linked) [2] | Cellular binding assay [RFU] [3] | ELISA [abs. corr.] [4] | Binder
1 | 2.19 abs. corr. | 0.586 abs. corr. | 0.217 µg/mL | 507 RFU | 1.53 abs. corr. | P018.S.11.A.C03 (antibody, V domains shown, V regions on human Ig constant parts; also called AB134_28) VH: QSVEESGGRLVTPGTPLTLTCKVSGFSLSTYDMIWVRQAPAKGLEYIGIIGGSGFTYYANWAKGRFTISKTSTTVDLKITSPTTEDTATYFCARNNYDMWGPGTLVTVSS VL: DVVMTQTPASVSEPVGGTVTIKCQASQSISNELAWHQQKPGQRPNLLIYGASTLESGVPSRFKGSRSGTEYTLTISDLESDDAATYYCQCTYYGSSYVGGAFGGGTEVVVK
2 | 2.27 abs. corr. | 1.82 abs. corr. | 0.461 µg/mL | 482 RFU | 2.64 abs. corr. | P018.S.04.A.B06 (antibody, V domains shown, V regions on human Ig constant parts; also called AB134_7) VH: QSVEESGGRLVTPGTFLTLTCTVSGFSLSSYAMNWVRQSPGKGLEWIGIIYSDDIAYYASWAKGRFTISKTSTTVTLKMTSLTVADTATYFCARGDGDRSIWSFDLWGPGTLVTVSS VL: AQVLTQTPSPVSAAVGGTVTISCQSSESVWNNNWLAWYQQKPGQPPNLLIYEASTLASGVSSRFKGSGSGTQFTLTVSEVQSDDAATYYCQGGYYDSSPIWTFGGGTEVVVK
3 | 2.3 abs. corr. | 1.01 abs. corr. | 0.355 µg/mL | 510 RFU | 2.49 abs. corr. | P018.S.04.A.D06 (antibody, V domains shown, V regions on human Ig constant parts; also called AB134_9) VH: QSLEESGGDLVKPGASLTLTCTASGFSFSSSYYMCWVRQAPGKGLEWIACIYTGDGASYYASWAKGRFTISKPSSTTVTLQVTSLTAADTATYFCGRGEYDNDWGFGLWGPGTLVTVSS VL: AYDMTQTPASVEVPVGGTVTINCQASEDISSYLSWYQQKPGQPPELLIYYASNLASGVSSRFKGSRSGTEFTLTISDLESADAATYYCQCSNYGGSWTFGGGTEVVVK
4 | 2.17 abs. corr. | 0.832 abs. corr. | 2.77 µg/mL | 180 RFU | 0.865 abs. corr. | P018.S.12.A.D06 (antibody, V domains shown, V regions on human Ig constant parts; also called AB134_71) VH: QSVEESGGRLVTPGTPLTLTCTVSGFSLSSYDMSWVRQAPGKGLEWIGIIYVSGTTDYASWAKGRFTISKTSTTVDLKMTSLTTEDTATYFCARDIYVDEIGCFDLWGQGTLVTVSS VL: DILMTQTPASVEVAVGGTVTIKCQASQNIRTYLAWYQQKPGQPPKLLIYRASTLESGVPSRFKGSGSGIEFSLTISDLESADAATYYCQNYDGGSSTGFGGGTEVVVK
5 | 2.21 abs. corr. | 2.07 abs. corr. | 0.44 µg/mL | 402 RFU | 2.36 abs. corr. | P018.S.04.A.F06 (antibody, V domains shown, V regions on human Ig constant parts; also called AB134_13) VH: QSVEESGGRLVTPGTPLTLTCTVSGIDLSSSAMSWVRQAPGKGLEWIGIIGYNDFTYYANWAKGRFTISKTSTTVDLKMTSPTTEDTATYFCARGGSSSYSDYVFDPWGPGTLVTVSS VL: AFEMTQTPSSVSEPVGGTVTIKCQASQSIYSNLAWYQQKPGQRPKLLIYDASDLASGVPSRFSGSGYGTEFTLTISDLESADAATYYCQSYYGISSYGVAFGGGTEVVVK
6 | 2.39 abs. corr. | 2.62 abs. corr. | 0.975 µg/mL | 463 RFU | 2.62 abs. corr. | P018.S.05.A.G05 (antibody, V domains shown, V regions on human Ig constant parts; also called AB134_18) VH: QSVEESGGRLVTPGTPLTLTCTVSGIDLSNHGMGWFRQGPGKGLEWIGIIYIDGGASYASWVNGRFTISKTSTTVDLKITSPTTEDTATYFCARGIPSDGDSSYYYFNLWGQGTLVTVAS VL: DVVMTQTPASVEAAVGGTVTIKCQASQSVYNKYLSWFQQKPGQPPKLLIYRASTLESGVSSRFKGSGSGTEFTLTISDLESADAATYYCQNNNGAGDNTDYTFGGGTEVVVK
7 | 2.39 abs. corr. | 0.356 abs. corr. | 1.17 µg/mL | 451 RFU | 2.97 abs. corr. | P018.S.04.A.H05 (antibody, V domains shown, V regions on human Ig constant parts; also called AB134_15) VH: QSVEESGGRLVTPGTPLTLTCTVSGFSLSSYAMGWVRQAPGKGLEWIGWINTAGGTDYTSWAKGRFTISKTSTTVDLKVTSLTTEDTATYFCARYDYYYFDLWGQGTLVTVSS VL: AQVLTQTASSVSAAVGGTVTISCQSSQSVYDNNWLAWYQQKPGQPPKLLIYSASTLASGVPSRFKGSGSGTEFTLTISDLESDDAAAYYCHGVYSGSIHAFGGGTEVVVI
8 | 2.17 abs. corr. | 0.341 abs. corr. | 0.733 µg/mL | 511 RFU | 2.12 abs. corr. | P018.S.12.A.F05 (antibody, V domains shown, V regions on human Ig constant parts; also called AB134_81) VH: QSLEESGGGLVQPGGSLKLSCKASGIDFSSYGVSWVRQAPGKGLEWIAYTYPDYGSTDYASWVNGRFTISLDNAQNTVFLQMTSLTAADTATYFCASSSNGWGGGFYFDLWGPGTLVTVSS VL: ALVMTQTPSPVSAAVGGTVTINCQASEDIYSNLAWFQQKPGQPPKLLIYGASTLASGVPSRFSGSGSGTEFTLTINDLKSDDAATYYCLGVYTYITTDPNAFGGGTEVVVK
9 | 2.19 abs. corr. | 0.253 abs. corr. | 0.785 µg/mL | 406 RFU | 1.96 abs. corr. | P018.S.11.A.C04 (antibody, V domains shown, V regions on human Ig constant parts; also called AB134_29) VH: QSVEESGGRLVTPGTPLTLTCTVSGFSLGSYPMIWVRQAPGKGLEWIGYIDPGRGTTLYASWARGLFTISKTSTTVDLAMTSPTAADTATYFCARSYPGDGAGDLWGQGTLVTVSS VL: DVVMTQTPASVSEPVGGTVTIKCQASESISNYFSWYQQKPGQPPKLLIYGASTLESGVSSRFKGSGSGTDFTLTISDLESADAATYYCQCTYYGSGDVGGAFGGGTEVVVK
10 | 2.38 abs. corr. | 0.135 abs. corr. | 1.39 µg/mL | 140 RFU | 0.206 abs. corr. | P018.S.04.A.E06 (antibody, V domains shown, V regions on human Ig constant parts; also called AB134_11) VH: QSVEESGGRLVTPGTPLTLTCTVSGFSLSGYDMSWVRQAPGKGLEWIGYIYAGSTYYANWAKGRFTISKTSTTVDLKMTSPTTEDTATYFCTRVGAGYSGVWAYFNLWGPGTLVTVSS VL: AQVLTQTPSSVSAAVGGTVTINCQSSQSVDSDNYLAWYQQKPGQPPKLLIYDASKLASGVPSRFTGSGSGTQFTLTISGVQSDDAATYYCQGTYGNIGWYFAFGGGTEVVVK
11 | 2.16 abs. corr. | 0.732 abs. corr. | 2.09 µg/mL | 537 RFU | 1.84 abs. corr. | P018.S.11.A.A06 (antibody, V domains shown, V regions on human Ig constant parts; also called AB134_23) VH: QEQLVESGGGLVQPEGSLTLTCKASGFSFSSANCMHWVRQAPEKGLQWIGCVCIGDGTTYYASWVNGRFSISATSSTTVTIQMTSLTAADTATYFCARDLGLWGPGTLVTVSS VL: AIVMTQTPSSKSVPVGDTVTINCQASESVDKYTQCSWYQQKPGQPPKLLIYYASTLASGVPSRFKGSGSGTQFTLTISDVVSDDAATYYCSGYKGGSADMIAFGGGTELVVT
12 | 2.15 abs. corr. | 0.26 abs. corr. | 0.865 µg/mL | 550 RFU | 1.9 abs. corr. | P018.S.11.A.A05 (antibody, V domains shown, V regions on human Ig constant parts; also called AB134_22) VH: QSVEESGGRLVTPGTPLTLTCTVSGFSLNSYDMSWVRQAPGKGLEWIGFISASGSIYFANWAKGRFTISKTSTTVDLKITSPTTEDTATYFCASDSYGWAYVYYFNLWGPGTLVTVSS VL: AVVLTQTPASVSAAVGGTVTINCRASEDIGSYLGWYQQKPGQPPKLLMHDASDLASGVPSRFSGSGSGTEFTLTISGVQSDDAATYYCQSAWYSSGTDKMAFGGGTEVVVK
13 | 2.23 abs. corr. | 0.455 abs. corr. | 1.01 µg/mL | 659 RFU | 2.21 abs. corr. | P018.S.12.A.E04 (antibody, V domains shown, V regions on human Ig constant parts; also called AB134_75) VH: QSVEESGGRLVTPGTPLTLTCTVSGFSLNSYDMSWVRQAPGKGLEWIGFISASGSIYFANWAKGRFTISKTSTTVDLKITSPTTEDTATYFCASDSYGWAYVYYFNLWGPGTLVTVSS VL: AVVLTQTPASVSAAVGGTVTINCRASEDVGSYLGWYQQRAGQPPKLLMHDASDLASGVPSRFSGSGSGTEFTLTISGVQSDDAATYYCQSAWLGTNTDKMAFGGGTEVVVK
14 | 2.21 abs. corr. | 0.879 abs. corr. | 0.63 µg/mL | 486 RFU | 2.85 abs. corr. | P018.S.04.A.A06 (antibody, V domains shown, V regions on human Ig constant parts; also called AB134_5) VH: QSLEESGGRLVTPGTPLTLTCTVSGFSLHNYNIQWVRQAPGKGLEWIGWILTDGSPYCANWAKGRFTISKTSTTVDLKITSPTIEDTATYFCARMGDYNINGLWGPGTLVTVSS VL: AQVLTQTPSSVSAAVGGTVTINCQSSQRIYNNDFLSWYQQKPGQPPKLLIYAASTLASGVPSRFKGSGSGTQFTLTISDLESDDAATYYCQGGYSSSGWYLPFGGGTEVVVK
